Assay results as given in PMC6555819, “Comprehensive study of nuclear receptor DNA binding provides a revised framework for understanding receptor specificity”.

B1: NRC3_wobSeed22_DR0_T22G_o1 (dsDNA)
DNA 1: GCTTACCAAGGTGAAGGTCGTGGATCCCTCTGTAGAGCGATTGACAGCGTAGAATGAAGG
DNA 2: CCTTCATTCTACGCTGTCAATCGCTCTACAGAGGGATCCACGACCTTCACCTTGGTAAGC
B2: NRC3_wobSeed43_DR1_A25C_o1 (dsDNA)
DNA 1: GCCCAGACAGGTGAAAGGTAACTCCGTCTGGTACGCGCGATTGACAGCGTAGAATGAAGG
DNA 2: CCTTCATTCTACGCTGTCAATCGCGCGTACCAGACGGAGTTACCTTTCACCTGTCTGGGC
B3: NRC3_wobSeed85_DR3_A27T_o1 (dsDNA)
DNA 1: GCCGTCCAAGGTCAGAGAGGTCAGTGTATGCCGAGTGCGATTGACAGCGTAGAATGAAGG
DNA 2: CCTTCATTCTACGCTGTCAATCGCACTCGGCATACACTGACCTCTCTGACCTTGGACGGC
B4: NRC3_wobSeed85_DR3_A28C_o1 (dsDNA)
DNA 1: GCCGTCCAAGGTCAGAGAGGTCAGTGACTGCCGAGTGCGATTGACAGCGTAGAATGAAGG
DNA 2: CCTTCATTCTACGCTGTCAATCGCACTCGGCAGTCACTGACCTCTCTGACCTTGGACGGC
B5: NRC3_wobSeed34_DR1_C5A_o1 (dsDNA)
DNA 1: GCATAGAAAGGTCGAAGGTGAGTATACCCACCCGAAGCGATTGACAGCGTAGAATGAAGG
DNA 2: CCTTCATTCTACGCTGTCAATCGCTTCGGGTGGGTATACTCACCTTCGACCTTTCTATGC
B6: NRC3_wobSeed34_DR1_T25C_o1 (dsDNA)
DNA 1: GCATCGAAAGGTCGAAGGTGAGTACACCCACCCGAAGCGATTGACAGCGTAGAATGAAGG
DNA 2: CCTTCATTCTACGCTGTCAATCGCTTCGGGTGGGTGTACTCACCTTCGACCTTTCGATGC
B7: NRC3_wobSeed113_DR4_A28C_o1 (dsDNA)
DNA 1: GCATATGTAGGTTAGCTGGGGTCATTCCGACTAGGCGCGATTGACAGCGTAGAATGAAGG
DNA 2: CCTTCATTCTACGCTGTCAATCGCGCCTAGTCGGAATGACCCCAGCTAACCTACATATGC
B8: NRC3_wobSeed90_DR3_G15T_o1 (dsDNA)
DNA 1: GCCATACAGGGTCATCTAGGCCAGAGTAGGGACGGCGCGATTGACAGCGTAGAATGAAGG
DNA 2: CCTTCATTCTACGCTGTCAATCGCGCCGTCCCTACTCTGGCCTAGATGACCCTGTATGGC
B9: NRC3_wobSeed27_DR1_C13T_o1 (dsDNA)
DNA 1: GCACTCGGAGGATAAAGGTCAGAGCTACGCCAGTGAGCGATTGACAGCGTAGAATGAAGG
DNA 2: CCTTCATTCTACGCTGTCAATCGCTCACTGGCGTAGCTCTGACCTTTATCCTCCGAGTGC
B10: NRC3_wobSeed27_DR1_A15G_o1 (dsDNA)
DNA 1: GCACTCGGAGGACAGAGGTCAGAGCTACGCCAGTGAGCGATTGACAGCGTAGAATGAAGG
DNA 2: CCTTCATTCTACGCTGTCAATCGCTCACTGGCGTAGCTCTGACCTCTGTCCTCCGAGTGC
B11: NRC3_wobSeed79_DR3_C17A_o1 (dsDNA)
DNA 1: GCTCATATAGGTAATAAAGGTGAAAGTCGGCATCTAGCGATTGACAGCGTAGAATGAAGG
DNA 2: CCTTCATTCTACGCTGTCAATCGCTAGATGCCGACTTTCACCTTTATTACCTATATGAGC
B12: NRC3_wobSeed7_DR0_A13T_o1 (dsDNA)
DNA 1: GCTCATATAGGTTAAGGTGAAAGTCGAACGATATGAGCGATTGACAGCGTAGAATGAAGG
DNA 2: CCTTCATTCTACGCTGTCAATCGCTCATATCGTTCGACTTTCACCTTAACCTATATGAGC
B13: NRC3_wobSeed133_DR5_G17T_o1 (dsDNA)
DNA 1: GCCGTCCAAGGTCAATTCTAGGTCAGTGAAAGCATTGCGATTGACAGCGTAGAATGAAGG
DNA 2: CCTTCATTCTACGCTGTCAATCGCAATGCTTTCACTGACCTAGAATTGACCTTGGACGGC
B14: NRC3_wobSeed133_DR5_G22C_o1 (dsDNA)
DNA 1: GCCGTCCAAGGTCAATGCTAGCTCAGTGAAAGCATTGCGATTGACAGCGTAGAATGAAGG
DNA 2: CCTTCATTCTACGCTGTCAATCGCAATGCTTTCACTGAGCTAGCATTGACCTTGGACGGC
B15: NRC3_wobSeed133_DR5_C7G_o1 (dsDNA)
DNA 1: GCCGTCGAAGGTCAATGCTAGGTCAGTGAAAGCATTGCGATTGACAGCGTAGAATGAAGG
DNA 2: CCTTCATTCTACGCTGTCAATCGCAATGCTTTCACTGACCTAGCATTGACCTTCGACGGC
B16: NRC3_wobSeed111_DR4_A17G_o1 (dsDNA)
DNA 1: GCCGAACTAGGTCAGAGCAGGACAGTGAAGGATGATGCGATTGACAGCGTAGAATGAAGG
DNA 2: CCTTCATTCTACGCTGTCAATCGCATCATCCTTCACTGTCCTGCTCTGACCTAGTTCGGC
B17: NRC3_wobSeed77_DR3_C16G_o1 (dsDNA)
DNA 1: GCACTTACGGGTCAAGGAGGTTATAGCACGCGTATAGCGATTGACAGCGTAGAATGAAGG
DNA 2: CCTTCATTCTACGCTGTCAATCGCTATACGCGTGCTATAACCTCCTTGACCCGTAAGTGC
B18: NRC3_wobSeed77_DR3_G19A_o1 (dsDNA)
DNA 1: GCACTTACGGGTCAACGAAGTTATAGCACGCGTATAGCGATTGACAGCGTAGAATGAAGG
DNA 2: CCTTCATTCTACGCTGTCAATCGCTATACGCGTGCTATAACTTCGTTGACCCGTAAGTGC
B19: NRC3_wobSeed20_DR0_A9G_o1 (dsDNA)
DNA 1: GCAGAATGGGGTTAAGATCAGGGAAACAGAATACATGCGATTGACAGCGTAGAATGAAGG
DNA 2: CCTTCATTCTACGCTGTCAATCGCATGTATTCTGTTTCCCTGATCTTAACCCCATTCTGC
B20: NRC3_wobSeed46_DR1_G10A_o1 (dsDNA)
DNA 1: GCTTACCAAAGTGAAAGGTCGTTGATGCACGCCTTGGCGATTGACAGCGTAGAATGAAGG
DNA 2: CCTTCATTCTACGCTGTCAATCGCCAAGGCGTGCATCAACGACCTTTCACTTTGGTAAGC
B21: NRC3_wobSeed32_DR1_A9T_o1 (dsDNA)
DNA 1: GCTCTTGTTGATCAAAGGTTAAGAAAGCCGAAGCCTGCGATTGACAGCGTAGAATGAAGG
DNA 2: CCTTCATTCTACGCTGTCAATCGCAGGCTTCGGCTTTCTTAACCTTTGATCAACAAGAGC
B22: NRC3_wobSeed40_DR1_A21T_o1 (dsDNA)
DNA 1: GCTAGCCTAGGTCATGGGCCTGTATACCACGCGAACGCGATTGACAGCGTAGAATGAAGG
DNA 2: CCTTCATTCTACGCTGTCAATCGCGTTCGCGTGGTATACAGGCCCATGACCTAGGCTAGC
B23: NRC3_wobSeed109_DR4_G4C_o1 (dsDNA)
DNA 1: GCCCTCCAAGGTCATAGGAGGTCAGTGAAGACAGATGCGATTGACAGCGTAGAATGAAGG
DNA 2: CCTTCATTCTACGCTGTCAATCGCATCTGTCTTCACTGACCTCCTATGACCTTGGAGGGC
B24: NRC3_wobSeed53_DR2_C15G_o1 (dsDNA)
DNA 1: GCCCTTACGGGTCAGGAGGTTATAGCACGACGAGCGGCGATTGACAGCGTAGAATGAAGG
DNA 2: CCTTCATTCTACGCTGTCAATCGCCGCTCGTCGTGCTATAACCTCCTGACCCGTAAGGGC
B25: NRC3_wobSeed55_DR2_A15T_o1 (dsDNA)
DNA 1: GCTCATATAGGTAATCAGGTGAAAGTCCGTAAGTTAGCGATTGACAGCGTAGAATGAAGG
DNA 2: CCTTCATTCTACGCTGTCAATCGCTAACTTACGGACTTTCACCTGATTACCTATATGAGC
B26: NRC3_wobSeed61_DR2_T24A_o1 (dsDNA)
DNA 1: GCCGTCCAAGGTCAGCAGGTCAGAGAAAGCGACGTGGCGATTGACAGCGTAGAATGAAGG
DNA 2: CCTTCATTCTACGCTGTCAATCGCCACGTCGCTTTCTCTGACCTGCTGACCTTGGACGGC
B27: NRC3_wobSeed74_DR3_A27G_o1 (dsDNA)
DNA 1: GCTCTAGTTGGTCACGGAGGTCACACGCGACGGGTAGCGATTGACAGCGTAGAATGAAGG
DNA 2: CCTTCATTCTACGCTGTCAATCGCTACCCGTCGCGTGTGACCTCCGTGACCAACTAGAGC
B28: NRC3_wobSeed141_DR5_C26A_o1 (dsDNA)
DNA 1: GCAGTCAAAGTTCAGGACGAGGTAAAGTAAAGCACGGCGATTGACAGCGTAGAATGAAGG
DNA 2: CCTTCATTCTACGCTGTCAATCGCCGTGCTTTACTTTACCTCGTCCTGAACTTTGACTGC
B29: NRC3_wobSeed141_DR5_G22A_o1 (dsDNA)
DNA 1: GCAGTCAAAGTTCAGGACGAGATAACGTAAAGCACGGCGATTGACAGCGTAGAATGAAGG
DNA 2: CCTTCATTCTACGCTGTCAATCGCCGTGCTTTACGTTATCTCGTCCTGAACTTTGACTGC
B30: NRC3_wobSeed4_DR0_T22A_o1 (dsDNA)
DNA 1: GCCCTACTGGGCCAAGGTCATAGATCAGTCAAAGCAGCGATTGACAGCGTAGAATGAAGG
DNA 2: CCTTCATTCTACGCTGTCAATCGCTGCTTTGACTGATCTATGACCTTGGCCCAGTAGGGC
B31: NRC3_wobSeed93_DR3_C16T_o1 (dsDNA)
DNA 1: GCAGTCAAAGTTCATTTAGGTAACGTAAGATATGCTGCGATTGACAGCGTAGAATGAAGG
DNA 2: CCTTCATTCTACGCTGTCAATCGCAGCATATCTTACGTTACCTAAATGAACTTTGACTGC
B32: NRC3_wobSeed138_DR5_A6T_o1 (dsDNA)
DNA 1: GCGATTCAGGGTCAGCTAGAGGCCAGAGTATGGAAAGCGATTGACAGCGTAGAATGAAGG
DNA 2: CCTTCATTCTACGCTGTCAATCGCTTTCCATACTCTGGCCTCTAGCTGACCCTGAATCGC
B33: NRC3_wobSeed58_DR2_G18C_o1 (dsDNA)
DNA 1: GCATCGAAAGGTCGTGACGTGAGTATACAGAAAGGCGCGATTGACAGCGTAGAATGAAGG
DNA 2: CCTTCATTCTACGCTGTCAATCGCGCCTTTCTGTATACTCACGTCACGACCTTTCGATGC

The binders below were run against PPARg:RXRa (Homo sapiens, UniProt P37231;P19793 full;full) (assay: no ligand; PBM; 180 nM : 90 nM RXRa; PBS pH 7.4, 2% milk, 0.02% Triton X-100, 1 mM DTT, BSA, 0.4 mg/ml salmon testes DNA). Conditions: tags: His kept;His cleaved; copies: 1;1; label: surface-attached array probe.
PPARg:RXRa, sequence (P37231 29-505, chain 1 of 2): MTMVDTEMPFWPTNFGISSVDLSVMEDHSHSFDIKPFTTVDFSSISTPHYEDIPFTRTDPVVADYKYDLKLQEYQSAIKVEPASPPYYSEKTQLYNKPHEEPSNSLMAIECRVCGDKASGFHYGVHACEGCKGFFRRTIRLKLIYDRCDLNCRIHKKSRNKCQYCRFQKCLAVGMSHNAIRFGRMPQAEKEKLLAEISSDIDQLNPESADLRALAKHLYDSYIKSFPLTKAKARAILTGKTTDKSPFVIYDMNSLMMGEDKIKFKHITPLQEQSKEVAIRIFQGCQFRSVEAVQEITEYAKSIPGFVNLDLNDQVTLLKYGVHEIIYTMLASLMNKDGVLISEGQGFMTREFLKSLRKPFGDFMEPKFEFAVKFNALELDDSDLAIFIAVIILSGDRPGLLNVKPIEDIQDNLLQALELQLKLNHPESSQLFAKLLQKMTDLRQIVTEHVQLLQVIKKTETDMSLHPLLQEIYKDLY
PPARg:RXRa, sequence (P19793 whole entry, chain 2 of 2): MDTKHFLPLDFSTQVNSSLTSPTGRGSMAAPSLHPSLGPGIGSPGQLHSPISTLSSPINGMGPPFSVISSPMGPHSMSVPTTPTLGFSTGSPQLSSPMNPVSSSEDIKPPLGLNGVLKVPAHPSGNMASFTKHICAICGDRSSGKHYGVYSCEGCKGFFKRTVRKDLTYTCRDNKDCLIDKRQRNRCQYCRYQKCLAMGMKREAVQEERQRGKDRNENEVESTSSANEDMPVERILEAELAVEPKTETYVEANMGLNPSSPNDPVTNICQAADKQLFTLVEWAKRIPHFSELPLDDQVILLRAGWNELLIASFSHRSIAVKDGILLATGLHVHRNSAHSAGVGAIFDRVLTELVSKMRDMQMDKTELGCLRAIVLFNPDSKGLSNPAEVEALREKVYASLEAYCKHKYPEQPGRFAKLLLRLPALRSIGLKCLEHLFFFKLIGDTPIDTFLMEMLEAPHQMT
For B1, the binding signal was 3.58 PBM z-score against 500 random probes.
In the case of B2, the binding signal is reported as 5.61 PBM z-score against 500 random probes.
For B3, the binding signal was 3.51 PBM z-score against 500 random probes.
In the case of B4, the binding signal is reported as 3.39 PBM z-score against 500 random probes.
B5 was tested, and the binding signal was 5.06 PBM z-score against 500 random probes.
With B6 the binding signal was 4.49 PBM z-score against 500 random probes.
In the case of B7, the binding signal is reported as 5.53 PBM z-score against 500 random probes.
B8 was tested, and the binding signal was 5.29 PBM z-score against 500 random probes.
In the case of B9, the binding signal is reported as 6.02 PBM z-score against 500 random probes.
With B10 the binding signal was 4.56 PBM z-score against 500 random probes.
With B11 the binding signal was 3.46 PBM z-score against 500 random probes.
B12 was tested, and the binding signal was 4.42 PBM z-score against 500 random probes.
In the case of B13, the binding signal is reported as 4.21 PBM z-score against 500 random probes.
For B14, the binding signal was 3.28 PBM z-score against 500 random probes.
For B15, the binding signal was 4.13 PBM z-score against 500 random probes.
In the case of B16, the binding signal is reported as 5.81 PBM z-score against 500 random probes.
With B17 the binding signal was 5.22 PBM z-score against 500 random probes.
For B18, the binding signal was 4.99 PBM z-score against 500 random probes.
In the case of B19, the binding signal is reported as 4.73 PBM z-score against 500 random probes.
In the case of B20, the binding signal is reported as 3.7 PBM z-score against 500 random probes.
In the case of B21, the binding signal is reported as 4.28 PBM z-score against 500 random probes.
For B22, the binding signal was 3.23 PBM z-score against 500 random probes.
For B23, the binding signal was 5.72 PBM z-score against 500 random probes.
For B24, the binding signal was 3.77 PBM z-score against 500 random probes.
With B25 the binding signal was 3.84 PBM z-score against 500 random probes.
B26 was tested, and the binding signal was 4.83 PBM z-score against 500 random probes.
With B27 the binding signal was 3.93 PBM z-score against 500 random probes.
For B28, the binding signal was 4.92 PBM z-score against 500 random probes.
With B29 the binding signal was 4.64 PBM z-score against 500 random probes.
With B30 the binding signal was 4.36 PBM z-score against 500 random probes.
With B31 the binding signal was 5.92 PBM z-score against 500 random probes.
B32 was tested, and the binding signal was 4.08 PBM z-score against 500 random probes.
B33 was tested, and the binding signal was 3.63 PBM z-score against 500 random probes.
